In doi:10.1101/2025.10.11.681782:

Assays:
[1] = target: DosR (D54E, activated form; called DosR/wild type in EMSA) D54E (Mycobacterium tuberculosis) (UniProt P9WMF9); test: EMSA
[2] = target: DosR M194term (helix alpha10 truncated) D54E;del194-217 (Mycobacterium tuberculosis) (UniProt P9WMF9); test: EMSA

Which binding [1] does the source give for “GGCGGTTGGCAGACAACAGGGTCAATGGTCCCCAAGTGGATCACCGACGGGCGCGGACAAATGGCCCGCGCTTCGGGGACTTCTGTCCCTAGCCCTGGCCACGATGGGCTGGTCGGATCAAAGGCATCCGTTTCCATCGATTAGGAGGCAGGCACGTACGAAGGAAGGAT (double strand) [hspX promoter PCR product]” here?
Its binding is “binds”.

What about the binding [2] of the same sequence?
Its binding is “binds more weakly”.
